The values that follow are results of earlier work, collected in paper PMC10412679.

pKd: −log10 of the molar value.

This series addresses CD47 (Homo sapiens) (UniProt Q08722).

One may read the pKd as the Kd on a negative log10 scale, so that one unit is a factor of ten. On to magrolimab, for which the negative logarithm of the Kd (pKd) is 8.10.
